Measured values as given in US20240412835.

Tested on: PD-1 TALEN (left/right pair, split FokI) (synthetic construct)
Assay: cell_activity
Settings: median of 6 TIL lots (38.09-74.73), NGS; document lists two candidate PD-1 TALEN pairs and does not state which was used

Question: For PDCD1 exon 2 target site, which activity is on record?
Answer: Its activity is 54 % indels.
